We go through 1 molecule from patent US20150139990A1 (DAINIPPON SUMITOMO PHARMA, published 2015).

Changes are numbered by the printed parent chain. Numbers in names are those of the source.

Common to all, as to assay: ELISA
(In general: ELISA stands for enzyme-linked immunosorbent assay.)

For test [1], the target named is T1, h190c human-chicken CD81 chimera (human; chicken, UniProt P60033 1-236).
T1 construct: as m30; not shown: C-terminal V5 and 6xHis tags
T1 chain: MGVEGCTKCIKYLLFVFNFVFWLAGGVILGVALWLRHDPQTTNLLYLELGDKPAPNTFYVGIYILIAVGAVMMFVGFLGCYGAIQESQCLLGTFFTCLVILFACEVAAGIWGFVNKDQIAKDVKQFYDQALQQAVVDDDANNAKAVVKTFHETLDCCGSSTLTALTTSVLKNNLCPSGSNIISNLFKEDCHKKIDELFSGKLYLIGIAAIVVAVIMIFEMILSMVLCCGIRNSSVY
On the procedure:
(§1) To identify the epitopes to which each of the anti-human CD81 antibodies (002-A07 and 005-001) bind, ELISA assays were performed using human-chicken CD81 chimera constructs listed in Table 6. Each construct was transiently expressed in CHO cells and its cell membrane fraction was solubilized with detergents and immobilized onto a plate.
(§2) As control antibodies, human IgG4 antibody (Acris Antibodies GmbH) and mouse IgG antibody were used. Human-chicken chimera protein was captured via His tag introduced into the C-terminal by adding the membrane fraction (5 μg/100 μL/well) prepared (1) above to Ni NTA His Sorb plate (QIAGEN) in the presence of 1% (w/v) n-Octylglucoside and incubating for 3 hours at 4° C. After washing with TBST (TBS, 0.05% (v/v) Tween 20) three times, an anti-human CD81 antibody or a control antibody (50 μL/well) was added and incubated for 1 hour at room temperature (RT). After washing, 2000 fold-diluted HRP-labeled anti-human IgG4 antibody (Mouse anti-human IgG₄ HRP clone:HP6023 Beckman Coulter) or 1000 fold-diluted HRP-labeled anti-mouse IgG antibody (Invitrogen) (50 μL/well) were added. The plate was incubated for 1 hour at RT and washed with TBST three times. And then, peroxidase activity was determined by TMB One solution (Promega; Code 53025). The reaction was stopped with 2 M H₂SO₄ (50 μL) and absorbance at 450 nm was measured.

For test [2], the target named is T2, c138h human-chicken CD81 chimera (chicken; human, UniProt P60033 1-236).
T2 construct: as m30; not shown: C-terminal V5 and 6xHis tags
T2 chain: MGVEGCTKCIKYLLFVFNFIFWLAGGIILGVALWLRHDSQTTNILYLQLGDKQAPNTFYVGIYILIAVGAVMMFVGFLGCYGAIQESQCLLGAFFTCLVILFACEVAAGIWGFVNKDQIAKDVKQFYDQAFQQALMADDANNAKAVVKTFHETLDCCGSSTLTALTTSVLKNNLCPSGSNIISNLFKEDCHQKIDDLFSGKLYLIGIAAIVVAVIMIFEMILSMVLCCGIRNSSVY
The protocol:
as §1, §2

The target in test [3] is T3, c190h human-chicken CD81 chimera (chicken; human).
T3 construct: as m30; not shown: C-terminal V5 and 6xHis tags
T3 chain: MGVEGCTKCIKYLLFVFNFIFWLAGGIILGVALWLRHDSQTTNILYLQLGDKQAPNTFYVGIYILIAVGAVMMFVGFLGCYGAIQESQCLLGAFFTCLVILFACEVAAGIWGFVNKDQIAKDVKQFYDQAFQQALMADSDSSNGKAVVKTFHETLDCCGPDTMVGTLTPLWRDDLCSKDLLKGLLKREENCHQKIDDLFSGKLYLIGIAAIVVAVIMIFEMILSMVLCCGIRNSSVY
The protocol: as §1, §2

Test [4] addresses T4, human CD81 mutant S168T (human, UniProt P60033 1-236, limits assumed).
T4 construct: as m30; not shown: C-terminal V5 and 6xHis tags
T4 sequence: T1 chain with S168T, K192Q, E196D
In short, it runs like this:
(§3)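 CHO cells transiently expressed V5- and 6×His-tagged altered human CD81 from pcDNA-DEST40 for 48 hours. Membranes solubilised in 1% n-octylglucoside were bound to Ni-NTA His Sorb plates at 5 μg/100 μL/well for 3 hours at 4° C, then incubated with antibody for 1 hour at room temperature and read at 450 nm after HRP anti-human IgG4 and TMB. Relative binding affinity is the percentage of unmodified CD81 binding after correction for V5-tag expression.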

Test [5] deals with T5, human CD81 mutant G158A (human, UniProt P60033 1-236, limits assumed).
T5 construct: as m30; not shown: C-terminal V5 and 6xHis tags
T5 sequence: T1 chain with G158A, K192Q, E196D
The essentials:
as §3

Test [6] addresses T6, human CD81 mutant D137E (human, UniProt P60033 1-236, limits assumed).
T6 construct: as m30; not shown: C-terminal V5 and 6xHis tags
T6 sequence: T1 chain with D137E, K192Q, E196D
The essentials:
as §3

Test [7] deals with T7, human CD81 mutant D137A (human, UniProt P60033 1-236, limits assumed).
T7 construct: as m30; not shown: C-terminal V5 and 6xHis tags
T7 sequence: T1 chain with D137A, K192Q, E196D
In short, it runs like this:
as §3

B1: 002-A07 IgG4 antibody (antibody)
heavy: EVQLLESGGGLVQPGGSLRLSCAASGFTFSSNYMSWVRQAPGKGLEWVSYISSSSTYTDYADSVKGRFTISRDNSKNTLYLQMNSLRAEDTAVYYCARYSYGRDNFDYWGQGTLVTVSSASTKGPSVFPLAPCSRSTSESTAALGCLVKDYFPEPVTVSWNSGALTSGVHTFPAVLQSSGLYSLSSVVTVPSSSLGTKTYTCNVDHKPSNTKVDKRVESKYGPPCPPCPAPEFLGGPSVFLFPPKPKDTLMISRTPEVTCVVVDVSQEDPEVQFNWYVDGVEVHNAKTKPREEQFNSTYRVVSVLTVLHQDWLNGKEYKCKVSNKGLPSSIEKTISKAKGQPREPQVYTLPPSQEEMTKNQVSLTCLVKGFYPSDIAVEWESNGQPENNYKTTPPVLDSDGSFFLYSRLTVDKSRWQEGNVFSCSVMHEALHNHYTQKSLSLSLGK
light: QSVLTQPPSASGTPGQRVTISCTGSTSNIGAGYDTHWYQQLPGTAPKLLIYGNSNRPSGVPDRFSGSKSGTSASLAISGLRSEDEADYYCQSYDTNLSVWVFGGGTKLTVLGQPKAAPSVTLFPPSSEELQANKATLVCLISDFYPGAVTVAWKADSSPVKAGVETTTPSKQSNNKYAASSYLSLTPEQWKSHRSYSCQVTHEGSTVEKTVAPTECS
notes: human IgG4 S228P, lambda light chain
For B1, the binding result in test [1] was “binds”. Further, the “absorbance at 450 nm relative to hCD81” value in test [2] and in test [3] was less than 10% throughout. For the same molecule, the relative binding affinity in test [4], in test [5], in test [6] and in test [7] was less than 20% in each case.
